This is an account of results in US5472938A, “Pharmaceutical depot compositions containing hirudin” (Ciba-Geigy Corporation, priority 1993, dated 1995).

The series is described as follows: Storage of hirudin in water, chromatographic analysis (Mono Q / ProPac). The format is physicochemical. As to conditions: FIG. 2. The method, then: MONO Q METHOD: The stability of hirudin can be analysed by FPLC ([…] protein liquid chromatography) using a Mono-Q column (10 μm particle size, 5.0×50 mm, purchased from Pharmacia). The method was developed by Ciba-Geigy, Basel. Solvent A is 50 mM HCOONH4 in H2 O pH 4.5, and solvent B is 50 mM HCOONH4 in H2 O , pH 3.5. The elution is performed at room temperature (22° C.) using a flow rate of 1.4 ml/min. The binary elution for the first 5 min is at constant flow of 20% B, followed by a linear gradient from 20% B to 75% B over 10 minutes, and 2 minutes at 100% B after which the column is equilibrated for 2 min at the starting conditions of 20% B.
PROPAC METHOD: A recently published method for hirudin analysis can also be used [Tuong, A., Maftouh, M., Ponthus, C., Whitechurch, O., Roitsch, C., and Picard, C. (1992) "Characterisation of the Deamidated Forms of Recombinant Hirudin" Biochemistry 31, 8291-8299]. In this method a ProPac PAl anion-exchange column (250×4 mm i.d.) from Dionex is used. Solvent A is 20 mM Tris-HCl, pH 7.0 and solvent B is 0.5M NaCL in A. Isocrastic elution for 5 min at 28% is followed by a linear gradient from 28%B to 54%B over 60 min at a flow rate of 1.3 ml/mim.
The two peaks which elute in the front of the main peak (FIG. 1) are referred to as Q4 and Q5 peaks, respectively. […] The exact nature of the products which produce those extra peaks is not known.

On to hirudin, for which the “change of chromatogram on storage in water” value is “increase of the Q4 and Q5 peaks with time”.
